Source: patent US9862748B2, “Peptide compounds and methods of production and use thereof” (priority 2012, dated 2018)
Square brackets hold non-standard residues; d marks the D form. Peptide text beside a SMILES is read from it. AEEA = NCCOCCOCC(=O)O

Assays:
Pseudomonas LPS = experiment: LPS binding, Limulus Amebocyte Lysate (LAL) assay
Method: (§1) The well-characterized response of RAW264.7 macrophage cells was used to produce tumor necrosis-factor-alpha (TNF-α) in response to LPS to determine whether the peptides could dampen the release of this cytokine. […] Importantly, pre-treatment (3 hours prior to LPS addition) as well as post-treatment of the RAW264.7 cells (3 hours post LPS addition) with peptide dampened the cytokine release. […] The finding that the novel peptides bind and neutralize the effect of Pseudomonas LPS is of critical importance since this ensures that the novel therapeutic peptide compounds described herein will not only kill the bacteria, but will also neutralize the LPS endotoxin released by the bacteria which plays such an important role in the rapid progression of sepsis.
(§2) BCC01-5RMP (SEQ ID NO: 21), BCC02-5RMP (SEQ ID NO: 22), and BCC03-5RMP (SEQ ID NO: 23) were tested for their ability to bind lipopolysaccharide (LPS) using the limulus amebocyte lysate method (LAL). […] There was no statistical difference in their ability to bind LPS using the LAL technique. The ability of the peptides to neutralize LPS was assessed by determining their ability to attenuate the release of tumor necrosis factor-alpha (TNF-α) from LPS-stimulated RAW264.7 cells (a mouse macrophage cell line). […] No significant differences were observed between the three peptides to neutralize LPS as measured by cytokine release.

Salmonella typhimurium = experiment: In vitro bactericidal assay; format: cell-based
Method: (§3) In vitro bactericidal activity: The three peptide compounds BCC01-5RMP (SEQ ID NO: 21), BCC02-5RMP (SEQ ID NO: 22), and BCC03-5RMP (SEQ ID NO: 23) were assayed for in vitro bactericidal activity against Pseudomonas aeruginosa, Escherichia coli, Salmonella typhimurium, and Acinetobacter baumannii. The starting inoculum for all experiments was 1×10^6 colony forming units (CFU)/ml. The CFU remaining at the end of 60 to 180 minute incubation was determined, and the data plotted as a log reduction in CFU/ml.

RAW264.7 cells = experiment: LPS neutralization: TNF-α release from LPS-stimulated RAW264.7 cells; format: cell-based, mouse
Method: as §1, §2

[1] = system: Acinetobacter baumannii ATCC® BAA-747™; format: cell-based; conditions: starting inoculum 1×10^6 CFU/ml; 60 to 180 minute incubation
Method: as §3
For FIGS. 10-13, in vitro bactericidal assays were performed using a starting inoculum of 1×10^6 CFU/ml of the bacterial suspension. The CFU remaining at the end of the 60-180 minute incubation was determined, and the data was plotted as log reduction in CFU/ml.
In particular, each of the test peptides (CAP37 peptides 120-146WR, 120-146WH, and 95-122 (SEQ ID NOs: 30, 31, and 26, respectively)) was used at 25, 12.5, 6.25, and 3.12 μM. Gentamicin was used at 4 μg/ml. 1×10^6/ml Acinetobacter baumannii ATCC® BAA-747™ or Pseudomonas aeruginosa ATCC® 27853™ (American Type Culture Collection, Manassas, Va.) were incubated with the peptides, negative buffer control (tryptone saline), and positive control gentamicin at pH 5.5 or 7.2. A 60 minute incubation was used for Acinetobacter baumannii ATCC® BAA-747™, while a 180 minute incubation was used for Pseudomonas aeruginosa ATCC® 27853™. 50 μl aliquots were plated out on agar plates and incubated overnight. Colony forming units were counted after overnight incubation and CFU/ml calculated.

[2] = system: human corneal epithelial cell (HCEC); experiment: HCEC chemotaxis, modified Boyden chemotaxis chamber assay; format: cell-based; conditions: 120-146QH 10^−4 to 10^−10 M; 120-146QR 10^−6 and 10^−8 M; HB-EGF 50 ng/ml; rCAP37 250 ng/ml; 3 hours
Method: The effect of buffer control (0.1% BSA in Gey's buffer), heparin binding-epidermal growth factor (HB-EGF, 50 ng/ml), recombinant CAP37 (rCAP37, 250 ng/ml), 120-146QH ([…], 10^−10M, 10^−8M, 10^−4M, and 10^−4M,) and 120-146QR (10^−10M, 10^−8M, 10^−6M, and 10^−4M) on HCEC chemotaxis was determined by the modified Boyden chemotaxis chamber method. HCEC chemotaxis was measured in response to HB-EGF, rCAP37, and peptides 120-146QH (SEQ ID NO: 29) and 120-146QR (SEQ ID NO: 28) after incubation for 3 hours at 37° C. Chemotaxis is expressed as a percent migration. The buffer control (no chemoattractant) is arbitrarily assigned the value of 100% migration. Data are expressed as means±SEM and are calculated from 6 observations for each test point. **P<0.01 by Wilcoxon signed-rank test as compared to controls.
Chemotaxis assays were performed using the modified Boyden chemotaxis chamber assay. Peptide 120-146QH was used at 10^−4M, 10^−6M, 10^−8 M, 10^−10 M, and 10^−12M, and peptide 120-146QR was used at 10^−4M, 10^−6M, 10^−8 M, and 10^−10 M.

[3] = system: mouse cornea (corneal epithelial abrasion); experiment: In vivo model of corneal wound healing
Method: The in vivo model of wound healing was carried out using a disposable biopsy punch (2 mm, Miltex, York, Pa.) to demarcate the mouse cornea and a 0.5 mm burr using the AlgerBrush II (The Alger Company, Inc., Lago Vista, Tex.) to remove the corneal epithelium.
Mice were anesthetized using ketamine (100 mg/kg; Bionichepharma, LLC., St. Lake Forrest, Ill.) and xylazine ([…]; Rompun; Bayer Corp., Shawnee Mission, Kans.), and the right cornea was wounded as follows. A disposable biopsy punch (2 mm, Miltex, York, Pa.) was used to demarcate the mouse cornea. The corneal epithelium was carefully removed within the 2 mm demarcated area with a 0.5 mm burr using the AlgerBrush II (The Alger Company, Inc., Lago Vista, Tex.). The corneal abrasions were treated at 0 and 16 hours with HB-EGF (250 ng/ml), rCAP37 (250 ng/ml), or vehicle control (0.9% sodium chloride, pH 5.5, Baxter, Deerfield, Ill.). Corneal abrasions were visualized using sterile fluorescein sodium ophthalmic strips USP (FLUORETS®, Chauvin Laboratory, Aubenas, France) dampened with sterile PBS. Images were taken at 0, 16, 24, and 48 hours immediately following fluorescein staining using a surgical microscope equipped with a camera (Carl Zeiss OPMI VISU 140, Carl Zeiss Surgical, Inc., Oberkochen, Germany). The areas of the open wound were quantitated using ImageJ software (US National Institutes of Health), and the results were reported as the percentage of wound closure.
Whole mouse eyes were collected for histology at 0, 6, 16, 24, and 48 hours post wounding and were immediately placed in Prefer fixative (Anatech LTD., Battle Creek, Mich.) for 20 minutes before being transferred to 70% ethanol. Tissues were paraffin-embedded and cut at a thickness of 5 μm, mounted on SUPERFROSTPLUS® slides (Statlab Medical Products, Lewisville, Tex.), and subsequently deparaffinized, rehydrated, and washed in deionized water. Sections were stained with hematoxylin (Leica Microsystems, Buffalo Grove, Ill.) and rinsed twice in deionized water before being washed in Blue Buffer (Leica Microsystems). The sections were finally washed in deionized water and 95% ethanol prior to being counterstained with eosin (Leica Microsystems). Sections were dehydrated in ethanol and cleared in xylene.

HCEC monolayers = experiment: In vitro scratch assay of wound closure; format: cell-based, human
Method: An in vitro scratch assay was used in order to determine the ability of rCAP37 to facilitate corneal wound healing. Human corneal epithelial cells were cultured as described above until they reached a confluent monolayer. Each monolayer was scratched using a 10 μl pipette tip to create two perpendicular lines. Monolayers were treated with heparin binding-epidermal growth factor (HB-EGF, 250 ng/ml; Becton Dickinson), rCAP37 (25-2000 ng/ml), or basal KSFM (Gibco). Wound closure was monitored at 0, 18, 24, and 48 hours utilizing a camera-equipped inverted microscope (TE2000-E; Nikon, Melville, N.Y.). Time-lapse images of in vitro wound closure were obtained using a camera-equipped inverted microscope (TE2000-E; Nikon) from 0-18 hours. HCEC monolayers were treated with HB-EGF, rCAP37, and basal KSFM as described above. The width of each scratch was quantitated using ImageJ software (US National Institutes of Health, Bethesda, Md.). Results are presented as the percentage of wound closure.

[4] = 250 ng/ml topical at 0 and 16 hours

For CC[C@H](C)[C@H](NC(=O)[C@H](CC(C)C)NC(=O)[C@H](C)NC(=O)CNC(=O)CNC(=O)[C@H](CS)NC(=O)[C@H](Cc1ccccc1)NC(=O)[C@H](Cc1c[nH]cn1)NC(=O)[C@H](CCCNC(=N)N)NC(=O)CNC(=O)[C@H](CCC(N)=O)NC(=O)[C@H](CC(N)=O)NC(=O)[C@H](CCCNC(=N)N)NC(=O)[C@H](CCCNC(=N)N)NC(=O)[C@H](CCCNC(=N)N)NC(=O)[C@H](CCCNC(=N)N)NC(=O)COCCOCCNC(=O)COCCOCCN)C(=O)N[C@@H](Cc1c[nH]cn1)C(=O)N[C@@H](C)C(=O)N[C@@H](CCCNC(=N)N)C(=O)N[C@@H](Cc1ccccc1)C(=O)N[C@H](C(=O)N[C@@H](CCSC)C(=O)N[C@H](C(=O)N[C@@H](C)C(=O)N[C@@H](C)C(=O)N[C@@H](CO)C(=O)N[C@@H](CS)C(=O)N[C@@H](Cc1ccccc1)C(=O)N[C@@H](CCC(N)=O)C(=O)N[C@@H](CCCNC(=N)N)C(=O)O)[C@@H](C)O)C(C)C [BCC01-5RMP] (H-[AEEA][AEEA]RRRRNQGRHFCGGALIHARFVMTAASCFQR-OH; N-terminus and C-terminus assumed), the “binding of Pseudomonas LPS (LAL)” value (Pseudomonas LPS) was “bound Pseudomonas LPS”, the “activity against Salmonella typhimurium” value (Salmonella typhimurium) was “strong, but lesser activity” and the “release of TNF-α in response to Pseudomonas LPS” value (RAW264.7 cells) was “attenuate the release of TNF-α”. The “activity against Acinetobacter baumannii” value [1] was “most active”.

B1: HB-EGF: heparin binding-epidermal growth factor, used as the positive control (protein, UniProt Q99075 63-148, looked up)
Heparin-binding EGF-like …: DLQEADLDLLRVTLSSKPQALATPNKEEHGKRKKKGKGLGKKRDPCLRKYKDFCIHGECKYVKELRAPSCICHPGYHGERCHGLSL
With B1 the “HCEC migration versus buffer control” value [2] was “significant increase in migration”, the “corneal wound healing versus vehicle” value ([3]; treated at 0 and 16 hours, 95-122 10^−5 M, 120-146WH 10^−8 M or 10^−6 M, HB-EGF 250 ng/ml) was “significantly higher” and the “time to complete closure of scratched monolayers” value (HCEC monolayers; 250 ng/ml) was no more than 24 h. The “percentage wound closure in vitro” value (HCEC monolayers; 250 ng/ml, at 18 hours) was roughly 88%.

B2: CAP37: cationic antimicrobial protein of Mr 37 kDa; recombinant CAP37 produced in human embryonic kidney (HEK) 293 cells (protein)
chain: IVGGRKARPRQFPFLASIQNQGRHFCGGALIHARFVMTAASCFQSQNPGVSTVVLGAYDLRRRERQSRQTFSISSMSENGYDPQQNLNDLMLLQLDREANLTSSVTILPLPLQNATVEAGTRCQVAGWGSQRSGGRLSRFPRFVNVTVTPEDQCRPNNVCTGVLTRRGGICNGDGGTPLVCEGLAHGVASFSLGPCGRGPDFFTRVALFRDWIDGVLNNPGP
For B2, the “HCEC migration versus buffer control” value [2] was “significant increase in migration”, the “re-epithelialization at 24 hours versus vehicle (H&E histology)” value ([3]; 250 ng/ml) was “greatly accelerated” and the “wound closure at 16 hours” value [3, 4] was 71%. The “wound closure at 24 hours” value [3, 4] was 83%, the “percentage wound closure in vitro” value (HCEC monolayers; 250 ng/ml, at 18 hours) was roughly 71% and the “percentage wound closure in vitro” value (HCEC monolayers; 500 ng/ml) was “approximately 62%”.
